Among the data in paper PMC2444025 are Kd values, retold here.

Where two headings read alike, the source gives them in different places. Where only a bound is given, the exact number is not on record here.

Data set [1] concerns Immunoglobulin E (IgE), human myeloma (human). Kind of data set: DNA microarray fluorescence. The note with it: Blocking buffer: 10 mg/mL casein, 0.1% Tween-20, 8.1 mM Na2HPO4 (printed N2HPO4), 1.1 mM KH2PO4, 2.7 mM KCl, 137 mM NaCl (138 mM also listed), 1 mM MgCl2, pH 7.
Data set [2] has the same test system. The note with it: in solution; full-length clone; Blocking buffer: 10 mg/mL casein, 0.1% Tween-20, 8.1 mM Na2HPO4 (printed N2HPO4), 1.1 mM KH2PO4, 2.7 mM KCl, 137 mM NaCl (138 mM also listed), 1 mM MgCl2, pH 7.; cited from earlier work.

In the case of “CTACCTACGATCTGACTAGCCAATGAGTGTACCACGTTTATCCGTCCCTCCTAGTGGCGTGCTTACTCTCATGTAGTTCC [D 17.0]”, the Kd in data set [1] is above 100 nM; in data set [2], 9 nM.

Usually Kd stands for the free concentration of one partner at which half of the binding sites on the other are occupied at equilibrium, for simple one-to-one binding.
